Where two headings read alike, the source gives them in different places.
T1: biotinylated recombinant human CTLA-4-Fc chimera (#786704, BioLegend) (human, UniProt P16410 37-162, biotinylated)
T1 construct: Bought reagent; Fc part of the bought chimera not given
T1 sequence (looked up): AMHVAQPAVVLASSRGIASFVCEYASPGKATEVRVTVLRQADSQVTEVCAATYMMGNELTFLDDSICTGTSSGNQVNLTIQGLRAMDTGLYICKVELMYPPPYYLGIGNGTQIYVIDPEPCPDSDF


Tests used:
[1] = target: T2, human C-C chemokine receptor type 8 (hCCR8) (human, UniProt P51685 1-355); experiment: cell-based or functional assay
T2 sequence (P51685 whole entry): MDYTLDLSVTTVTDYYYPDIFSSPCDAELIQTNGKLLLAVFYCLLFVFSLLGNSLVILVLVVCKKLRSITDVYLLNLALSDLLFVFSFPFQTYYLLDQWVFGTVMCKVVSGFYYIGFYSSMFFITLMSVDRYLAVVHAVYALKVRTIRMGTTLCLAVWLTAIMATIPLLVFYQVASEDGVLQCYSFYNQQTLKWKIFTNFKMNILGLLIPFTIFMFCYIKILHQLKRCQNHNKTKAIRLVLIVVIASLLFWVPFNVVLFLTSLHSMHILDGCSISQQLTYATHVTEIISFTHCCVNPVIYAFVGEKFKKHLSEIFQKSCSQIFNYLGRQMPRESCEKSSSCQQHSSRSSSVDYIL

[2] = target: T2, human C-C chemokine receptor type 8 …; experiment: KinExA, hCCR8-expressing HEK293 cells
Method: (§1) Humanized antibodies 504E12D8D12-HC1+LC1 and 504E12D8D12-HC1+LC1 (G34A) were tested by the Kinetic Exclusion Assay (KinExA, Sapidyne Instruments) to determine the affinity of binding to hCCR8-overexpressing cells. Briefly, polystyrene particles (#442178, Sapidyne Instruments) were coated with goat anti-human IgG Fc-specific Fab fragment (#109-007-008, Jackson ImmunoResearch Lab) according to the manufacturer's protocol. The antibodies were incubated with serial dilutions of hCCR8-expressing HEK293 cells at room temperature overnight by gently rotating to achieve equilibrium. The final antibody concentrations were adjusted to 0.05 nM and 1 nM, respectively. The supernatants were collected and run on KinExA 3200 (Sapidyne Instruments), and the antibody was captured by the coated polystyrene particles. The captured antibody was detected with Alexa Fluor 647-conjugated goat anti-human IgG (H+L) antibody (#109-605-003, Jackson ImmunoResearch Lab). Data was recorded and analyzed using KinExA Pro software (version 4.3.20).

[3] = target: T2, human C-C chemokine receptor type 8 …; experiment: cell-based or functional assay; remark: listed apart in the source
[4] = target: T1, biotinylated recombinant human …; experiment: flow cytometry: hCCR8-expressing HEK293 cells pre-loaded with the antibody, washed, incubated with biotinylated human CTLA-4-Fc, detected with PE-streptavidin [panel B]
Method: (§2) Bispecific antibodies FP578-01 and FP578-02 and anti-hCCR8 antibodies 504E12D8D12-HC1+LC1 (G34A) and 504E12D8D12-HC1+LC1 were incubated with hCCR8-expressing HEK293 cells for 1 hour at 4° C. The cells were washed and then incubated with biotinylated recombinant human CTLA-4-Fc chimera (#786704, BioLegend) for 1 hour at 4° C. After the cells were thoroughly washed, CTLA-4 was detected with phycoerythrin (PE)-conjugated streptavidin (#405203, BioLegend) by flow cytometry.

[5] = target: T1, biotinylated recombinant human …; experiment: flow cytometry: hCCR8-expressing HEK293 cells pre-loaded with the antibody, washed, incubated with biotinylated human CTLA-4-Fc, detected with PE-streptavidin [panel A]
Method: as §2

[6] = target: T2, human C-C chemokine receptor type 8 …; experiment: KinExA, hCCR8-expressing cells
Method: as §1
The affinity of bispecific antibodies FP578-01 and FP578-02 were determined by the kinetic exclusion assay as described above.

[7] = target: T1, biotinylated recombinant human …; experiment: flow cytometry: hCCR8-expressing HEK293 cells pre-loaded with the antibody, washed, incubated with biotinylated human CTLA-4-Fc, detected with PE-streptavidin [panel C]
Method: as §2

[8] = target: T2, human C-C chemokine receptor type 8 …; experiment: cell-based or functional assay; remark: listed apart in the source
[9] = target: T1, biotinylated recombinant human …; experiment: flow cytometry: hCCR8-expressing HEK293 cells pre-loaded with the antibody, washed, incubated with biotinylated human CTLA-4-Fc, detected with PE-streptavidin [panel D]
Method: as §2

Row | Binder | Kd [2] [nM] | IC50 (nM), antagonist activity measured by calcium flux assay [3] [nM] | Kd [6] [nM] | IC50 (nM), antagonist activity measured by β-arrestin assay [8] [nM] | also measured
1 | humanized antibody 41E1C2A5-HC4+LC2 (antibody, human IgG1, kappa, V domains shown) VH: EVQLVESGGGLVQPGGSLKLSCAASGFSFNAYAMNWVRQASGKGLEWVARIRSKSNNYATYYADSVKDRFTISRDDSENTAYLQMNSLKTEDTAVYFCVRGGTYGSSSYFDYWGQGTTVTVSS VL: DIVMTQSPLSLPVTPGEPASISCRSSKSLLHSNGNTYLYWFLQKPGQSPQLLIYRMSNLASGVPDRFSGSGSGTAFTLKISRVEAEDVGVYYCMQHLEYPFTFGGGTKLEIKR |  |  |  |  | IC50 (nM), antagonist activity measured by calcium flux assay [1]: 13.1 nM
2 | humanized antibody 504E12D8D12-HC1+LC1 (antibody, human IgG1, kappa, V domains shown) VH: EVQLVESGGGLVQPGGSLKLSCAASGFSFNTYAMNWVRQASGKGLEWVGRIRTKSNNYATYYAASVKDRFTISRDDSKNTAYLQMNSLKTEDTAVYYCTRGGSGLNYVRYFDVWGQGTTVTVSS VL: DIVMTQTPPSLPVNPGEPASISCRSSKSLLHSNGNTYLYWYLQKPGQSPQLLIYRMSNLASGVPDRFSGSGSGSDFTLKISWVEAEDVGVYYCMQHLEYPFTFGGGTKLEIKR | 0.072 | 8.6 |  |  | binding result [4]: no binding
3 | humanized antibody 504E12D8D12-HC1+LC1(G34A) (antibody, human IgG1, kappa, V domains shown) VH: EVQLVESGGGLVQPGGSLKLSCAASGFSFNTYAMNWVRQASGKGLEWVGRIRTKSNNYATYYAASVKDRFTISRDDSKNTAYLQMNSLKTEDTAVYYCTRGGSGLNYVRYFDVWGQGTTVTVSS VL: DIVMTQTPPSLPVNPGEPASISCRSSKSLLHSNANTYLYWYLQKPGQSPQLLIYRMSNLASGVPDRFSGSGSGSDFTLKISWVEAEDVGVYYCMQHLEYPFTFGGGTKLEIKR | 0.072 | 14.4 |  |  | binding result [5]: no binding
4 | bispecific antibody FP578-01 (CCR8/CTLA-4) (bispecific antibody, human IgG1, kappa) heavy: not shown light: DIVMTQTPPSLPVNPGEPASISCRSSKSLLHSNANTYLYWYLQKPGQSPQLLIYRMSNLASGVPDRFSGSGSGSDFTLKISWVEAEDVGVYYCMQHLEYPFTFGGGTKLEIKRTVAAPSVFIFPPSDEQLKSGTASVVCLLNNFYPREAKVQWKVDNALQSGNSQESVTEQDSKDSTYSLSSTLTLSKADYEKHKVYACEVTHQGLSSPVTKSFNRGEC |  |  | 0.102 | 4.26 | binding result [7]: binds
5 | bispecific antibody FP578-02 (CCR8/CTLA-4) (bispecific antibody, human IgG1, kappa) heavy: not shown light: DIVMTQTPPSLPVNPGEPASISCRSSKSLLHSNGNTYLYWYLQKPGQSPQLLIYRMSNLASGVPDRFSGSGSGSDFTLKISWVEAEDVGVYYCMQHLEYPFTFGGGTKLEIKRTVAAPSVFIFPPSDEQLKSGTASVVCLLNNFYPREAKVQWKVDNALQSGNSQESVTEQDSKDSTYSLSSTLTLSKADYEKHKVYACEVTHQGLSSPVTKSFNRGEC |  |  | 0.104 | 3.6 | binding result [9]: binds

— patent US20260109770A1 (REMD BIOTHERAPEUTICS, published 2026)
